# Test results reported in patent US5767250, “Complexes comprising truncated CMV gH polypeptides and escort proteins” (Chiron Corporation, dated 1998).
# B1: EC-FGF receptor, soluble extracellular domain of the human FGF receptor flg5 expressed in a baculovirus system (receptor)
# chain: RPSPTLPEQAQPWGAPVEVESFLVHPGDLLQLRCRLRDDVQSINWLRDGVQLAESNRTRITGEEVEVQDSVPADSGLYACVTSSPSGSDTTYFSVNVSDALPSSEDDDDDDDSSSEEKETDNTKPNPVAPYWTSPEKMEKKLHAVPAAKTVKFKCPSSGTPNPTLRWLKNGKEFKPDHRIGGYKVRYATWSIIMDSVVPSDKGNYTCIVENEYGSINHTYQLDVVERSPHRPILQAGLPANKTVALGSNVEFMCKVYSDPQPHIQWLKHIEVNGSKIGPDNLPYVQILKTAGVNTTDKEMEVLHLRNVSFEDAGEYTCLAGNSIGLSHHSAWLTVLEALEERPAVMTSPLYLE
# Molecular target: basic FGF (human, UniProt P09038, radioiodinated (125I) in the soluble binding assay and the radioreceptor assay)
# Assay: soluble binding assay: EC-FGF receptor on concanavalin A coated wells, 125I-bFGF with increasing bFGF, Scatchard analysis
binder,measurement,value
B1,Kd,< 5 nM
